{"source": "patent US20040253623", "about": "“Nucleic acid binding proteins” (Gendaq Limited, published 2004)", "binders": {"B1": {"name": "EJ mutant (G12V) H-ras DNA, codons 8-16 (dsDNA)", "DNA 1": "GTGGTGGGCGCCGTCGGTGTGGGCAAG", "DNA 2": "CTTGCCCACACCGACGGCGCCCACCAC"}}, "key": {"[1]": {"target": "anti-ras lead zinc finger peptide (3 fingers) (Artificial Sequence)", "sequence (chain, as listed by the source)": "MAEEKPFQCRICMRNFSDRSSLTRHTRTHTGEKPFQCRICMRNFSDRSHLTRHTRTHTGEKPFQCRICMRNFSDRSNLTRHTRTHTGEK", "assay": "apparent Kd; phage binding", "details": "protein: virion; label: biotin"}, "[2]": {"target": "optimised anti-ras zinc finger peptide (Asn at helix +3 of finger 1) (Artificial Sequence, S21N (finger 1 helix position +3 Ser to Asn; numbering of SEQ 14))", "sequence (chain, as listed by the source with the stated changes)": "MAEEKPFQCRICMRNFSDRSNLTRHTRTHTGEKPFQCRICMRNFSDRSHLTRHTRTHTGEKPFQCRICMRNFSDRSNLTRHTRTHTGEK", "assay": "apparent Kd; phage binding", "details": "protein: virion; label: biotin"}}, "data": [{"binder": "B1", "values": [{"measurement": "Kd", "setting": "[1]", "value": 17, "unit": "nM"}, {"measurement": "Kd", "setting": "[2]", "value": 3, "unit": "nM"}]}]}
